Measurements as given in article PMC9770967, “Native holdup (nHU) to measure binding affinities from cell extracts” (Science Advances, 2022).
One block for each molecule: values may come before it.

Tests used:
Type in all cases: binding, human
DLG1_PDZ_1 = test: nHU-MS, DLG1_PDZ_1 bait, total Jurkat extracts (Exploris MS)
Text: (§1) To further establish the repeatability and robustness of the nHU-MS assay, we repeated the experiments using a different mass spectrometer and six different PDZ domain baits taken from SCRIB (PDZ_1 and PDZ_2), discs large MAGUK scaffold protein 1 (DLG1, PDZ_1, and PDZ_2), Tax1 binding protein 3 (TAX1BP3), and SNX27 (fig. S3B and table S1). […] Of the studied baits, the PDZ domain of SNX27 turned out to be the most promiscuous with 103 statistically significant interaction partners (while 180 SNX27 binding partners were identified in total on the basis of the three independent nHU-MS experiments).
(§2) For saturating streptavidin resin with biotinylated peptides or biotin, 50 μl of streptavidin resin was mixed with biotin or peptide at 40 to 60 μM concentration in 6 to 6.5 resin volume for 60 min. To saturate streptavidin resin with biotinylated proteins, 50 μl of streptavidin resin (Streptavidin Sepharose High Performance, Cytiva) was mixed with biotinylated MBP or MBP-PDZ at 40 to 50 μM concentration in 20× resin volume for 60 min. After saturation, resins were washed a single time [10 resin volume, holdup buffer: 50 mM tris (pH 7.5), 300 mM NaCl, and 1 mM TCEP, 0.22-μm filtered] and were depleted with biotin (10 resin volume, 10 min, holdup buffer supplemented with 100 μM biotin). Last, resins were washed two times (10 resin volume, holdup buffer).
(§3) For single-point nHU experiments carried out at ~10 μM bait concentration, 50 μl of saturated streptavidin resin was mixed with 200 μl of cell lysate (2 mg/ml). […]
(§4) Samples were analyzed using an Ultimate 3000 nano-RSLC coupled in line via a nano-electrospray ionization source, with an LTQ-Orbitrap ELITE mass spectrometer (Thermo Fisher Scientific, San Jose, CA) or with the Orbitrap Exploris 480 mass spectrometer (Thermo Fisher Scientific, Bremen, Germany) equipped with a high field asymmetric ion mobility spectrometry (FAIMS) module. […]

TX1BP3_PDZ = test: nHU-MS, TX1BP3_PDZ (TAX1BP3) bait, total Jurkat extracts (Exploris MS); conditions: nHU-MS, total Jurkat extract
Text: as §1, §2
(§5) For single-point nHU experiments carried out at ~10 μM bait concentration, 50 μl of saturated streptavidin resin was mixed with 200 μl of cell lysate (2 mg/ml). Titration experiments were carried out by mixing control and bait-saturated resin and keeping the total resin volume constant; e.g., ~5 μM bait concentration can be achieved by mixing 25 μl of bait-saturated streptavidin resin with 25 μl of control resin and 200 μl of cell lysate (2 mg/ml). Control and bait-saturated resins were prepared in larger amounts, and a serial dilution was prepared with these presaturated resins to achieve different resin ratios.
Unless specified elswhere, the nHU mixture was incubated at 4°C for 2 hours. After the incubation ended, the resin was separated from the supernatant by a brief centrifugation (15 s, 2000 g). Then, half of the supernatant was removed by pipetting without any delay to avoid any resin contamination; e.g., 100 μl of supernatant is collected if 200 μl of cell lysate was used as analyte. […]
as §4

SCRIB_PDZ_1 = test: nHU-MS, SCRIB_PDZ_1 bait, total Jurkat extracts (Exploris MS)
Text: as §1, §2, §5
(§6) Unless specified elswhere, the nHU mixture was incubated at 4°C for 2 hours. After the incubation ended, the resin was separated from the supernatant by a brief centrifugation (15 s, 2000 g). Then, half of the supernatant was removed by pipetting without any delay to avoid any resin contamination; e.g., 100 μl of supernatant is collected if 200 μl of cell lysate was used as analyte. Alternatively, the supernatant can be centrifuged an additional time to clarify it further, removing any possible resin contamination. In principle, the separation of the supernatant should be as fast as possible since any delay can perturb the equilibrium. […] Alternatively, the resin can be separated from the supernatant using filter plates (e.g., various products of Millipore, Burlington, MA) or spin columns (e.g., Pierce spin cups—cellulose acetate filter from Thermo Fisher Scientific, Waltham, MA) to achieve faster separation.
The nHU samples were precipitated with trichloroacetic acid (TCA) 20% overnight at 4°C and centrifuged at 14,000 rpm for 10 min at 4°C. The protein pellets were washed twice with 1 ml of cold acetone and air-dried. The protein extracts were solubilized in 8 M urea, reduced with 5 mM TCEP for 30 min, and alkylated with 10 mM iodoacetamide for 30 min in the dark. Double digestion was performed at 37°C with 500 ng of endoproteinase Lys-C (Wako, Richmond, USA) for 4 hours, followed by fourfold dilution and an overnight digestion with 500 ng of trypsin (Promega, Charbonnieres les Bains, France). Peptide mixtures were then desalted on a C18 spin-column and dried on a speed vacuum.
as §4

SCRIB_PDZ_2 = test: nHU-MS, SCRIB_PDZ_2 bait, total Jurkat extracts (Exploris MS)
Text: as §1, §2, §5, §6
(§7) The nHU samples were precipitated with trichloroacetic acid (TCA) 20% overnight at 4°C and centrifuged at 14,000 rpm for 10 min at 4°C. The protein pellets were washed twice with 1 ml of cold acetone and air-dried. […]
as §4

SNX27_PDZ = test: nHU-MS, SNX27_PDZ bait, total Jurkat extracts, series 2 (Exploris MS); conditions: Jurkat, series 2, n = 3
Text: as §1, §2, §5, §6, §7, §4

DLG1_PDZ_2 = test: nHU-MS, DLG1_PDZ_2 bait, total Jurkat extracts (Exploris MS); conditions: Jurkat extract
Text: as §1, §2, §3, §4

- pKd (TX1BP3_PDZ; TX1BP3_PDZ bait, not filtered for significance (pKdsign N/D)): 3.0735
- pKd (SNX27_PDZ; apparent, not filtered for significance): 3.962
B1: NBDY: Negative regulator of P-body association (protein, UniProt A0A0U1RRE5 1-68, looked up)
Negative regulator of P-body …: MGDQPCASGRSTLPPGNAREAKPPKKRCLLAPRWDYPEGTPNGGSTTLPSAPPPASAGLKSHPPPPEK
- Ratio DLG1_1/MBP (DLG1_PDZ_1; DLG1_PDZ_1, total Jurkat extract): 1.036
- BI (DLG1_PDZ_1; DLG1_PDZ_1 bait vs MBP, total Jurkat extract): -0.03605
- Difference log2 (DLG1_PDZ_1; DLG1_PDZ_1 vs MBP, total Jurkat extract): 0.0511
- BI (TX1BP3_PDZ; TX1BP3_PDZ bait vs MBP): 0.0117
- Difference log2 (TX1BP3_PDZ; TX1BP3_PDZ vs MBP): -0.01698
- Ratio TX1BP3/MBP (TX1BP3_PDZ; TX1BP3_PDZ): 0.9883
- Ratio SCRIB_1/MBP (SCRIB_PDZ_1; nHU-MS, SCRIB_PDZ_1, total Jurkat extract): 1.029
- BI (SCRIB_PDZ_1; nHU-MS, SCRIB_PDZ_1 bait vs MBP, total Jurkat extract): -0.02908
- Difference log2 (SCRIB_PDZ_1; nHU-MS, SCRIB_PDZ_1 vs MBP, total Jurkat extract): 0.04136
- Ratio SCRIB_2/MBP (SCRIB_PDZ_2; nHU-MS, SCRIB_PDZ_2, total Jurkat extract): 1.014
- BI (SCRIB_PDZ_2; nHU-MS, SCRIB_PDZ_2 bait vs MBP, total Jurkat extract): -0.01381
- Difference log2 (SCRIB_PDZ_2; nHU-MS, SCRIB_PDZ_2 vs MBP, total Jurkat extract): 0.01978
- BI (SNX27_PDZ): 0.08384
- Difference log2 (SNX27_PDZ): -0.1263
- Ratio SNX27/MBP (SNX27_PDZ): 0.9162
- Difference log2 (DLG1_PDZ_2; DLG1_PDZ_2 bait vs MBP): 0.1631
- Ratio DLG1_2/MBP (DLG1_PDZ_2; DLG1_PDZ_2 bait vs MBP): 1.12
- BI (DLG1_PDZ_2; DLG1_PDZ_2 bait): -0.1197

- pKapp (nHU-MS) (SCRIB_PDZ_1; SCRIB_PDZ_1&Jurkat (Exploris)): 4.689
- pKapp (nHU-MS) (SCRIB_PDZ_2; SCRIB_PDZ_2&Jurkat (Exploris)): 4.691
B2: EWSR1 (protein, UniProt Q01844 1-656, looked up)
RNA-binding protein EWS: MASTDYSTYSQAAAQQGYSAYTAQPTQGYAQTTQAYGQQSYGTYGQPTDVSYTQAQTTATYGQTAYATSYGQPPTGYTTPTAPQAYSQPVQGYGTGAYDTTTATVTTTQASYAAQSAYGTQPAYPAYGQQPAATAPTRPQDGNKPTETSQPQSSTGGYNQPSLGYGQSNYSYPQVPGSYPMQPVTAPPSYPPTSYSSTQPTSYDQSSYSQQNTYGQPSSYGQQSSYGQQSSYGQQPPTSYPPQTGSYSQAPSQYSQQSSSYGQQSSFRQDHPSSMGVYGQESGGFSGPGENRSMSGPDNRGRGRGGFDRGGMSRGGRGGGRGGMGSAGERGGFNKPGGPMDEGPDLDLGPPVDPDEDSDNSAIYVQGLNDSVTLDDLADFFKQCGVVKMNKRTGQPMIHIYLDKETGKPKGDATVSYEDPPTAKAAVEWFDGKDFQGSKLKVSLARKKPPMNSMRGGLPPREGRGMPPPLRGGPGGPGGPGGPMGRMGGRGGDRGGFPPRGPRGSRGNPSGGGNVQHRAGDWQCPNPGCGNQNFAWRTECNQCKAPKPEGFLPPPFPPPGGDRGRGGPGGMRGGRGGLMDRGGPGGMFRGGRGGDRGGFRGGRGMDRGGFGGGRRGGPGGPPGPLMEQMGGRRGGRGGPGKMDKGEHRQERRDRPY
